Two molecules from article PMC5678105, “Engineering DNA Backbone Interactions Results in TALE Scaffolds with Enhanced 5-Methylcytosine Selectivity” can be followed below.

The target in series [1] is T1, GFP-TALE_9a_26 WT (Xanthomonas axonopodis scaffold …). As to the kind of experiment: EMSA; 5mC vs C DNA; EMSA: 20 mM Tris pH 8, 50 mM NaCl, 5 mM MgCl2, 5% glycerol; 0.1 pmol TALE + 0.5 pmol duplex in 10 uL; RT 30 min then ice 30 min; gel 0.5x TAE 4 C; GFP readout. The settings on record: protein: recombinant; tags: N-terminal GFP; C-terminal His6; blunt.
Series [2] deals with T1, GFP-TALE_9a_26 WT. Put plainly: EMSA; EMSA: 20 mM Tris pH 8, 50 mM NaCl, 5 mM MgCl2, 5% glycerol; 0.1 pmol TALE + 0.5 pmol duplex in 10 uL; RT 30 min then ice 30 min; gel 0.5x TAE 4 C; GFP readout. As to conditions: protein: recombinant; tags: N-terminal GFP; C-terminal His6; blunt.

B1: 9a_26 5mC (dsDNA)
DNA 1: GGCCAGCCAGTCAGCCGAAGGCTCCATGCTGCTCCCCGCCGCCGGC
DNA 2: GCCGGCGGCGGGGAGCAGCATGGAGCCTTCGGCTGACTGGCTGGCC
modifications: 5mC at strand 1 nt 16 (site position 5, T = 0)
Consider B1, for which the binding signal in series [1] was 2 fold C over 5mC selectivity.

B2: 9a_26 C (dsDNA)
DNA 1: B1 DNA 1
DNA 2: B1 DNA 2
For the molecule B2, the binding result in series [2] is on record as “binds”.
